Measured values reported in IntAct's records for PubMed 19556541.

B1: Polycystin-2 (Homo sapiens), Q13563-1 (parent)
chain: MVNSSRVQPQQPGDAKRPPAPRAPDPGRLMAGCAAVGASLAAPGGLCEQRGLEIEMQRIRQAAARDPPAGAAASPSPPLSSCSRQAWSRDNPGFEAEEEEEEVEGEEGGMVVEMDVEWRPGSRRSAASSAVSSVGARSRGLGGYHGAGHPSGRRRRREDQGPPCPSPVGGGDPLHRHLPLEGQPPRVAWAERLVRGLRGLWGTRLMEESSTNREKYLKSVLRELVTYLLFLIVLCILTYGMMSSNVYYYTRMMSQLFLDTPVSKTEKTNFKTLSSMEDFWKFTEGSLLDGLYWKMQPSNQTEADNRSFIFYENLLLGVPRIRQLRVRNGSCSIPQDLRDEIKECYDVYSVSSEDRAPFGPRNGTAWIYTSEKDLNGSSHWGIIATYSGAGYYLDLSRTREETAAQVASLKKNVWLDRGTRATFIDFSVYNANINLFCVVRLLVEFPATGGVIPSWQFQPLKLIRYVTTFDFFLAACEIIFCFFIFYYVVEEILEIRIHKLHYFRSFWNCLDVVIVVLSVVAIGINIYRTSNVEVLLQFLEDQNTFPNFEHLAYWQIQFNNIAAVTVFFVWIKLFKFINFNRTMSQLSTTMSRCAKDLFGFAIMFFIIFLAYAQLAYLVFGTQVDDFSTFQECIFTQFRIILGDINFAEIEEANRVLGPIYFTTFVFFMFFILLNMFLAIINDTYSEVKSDLAQQKAEMELSDLIRKGYHKALVKLKLKKNTVDDISESLRQGGGKLNFDELRQDLKGKGHTDAEIEAIFTKYDQDGDQELTEHEHQQMRDDLEKEREDLDLDHSSLPRPMSSRSFPRSLDDSEEDDDEDSGHSSRRRGSISSGVSYEEFQVLVRRVDRMEHSIGSIVSKIDAVIVKLEIMERAKLKRREVLGRLLDGVAEDERLGRDSEIHREQMERLVREELERWESDDAASQISHGLGTPVGLNGQPRPRSSRPSSSQSTEGMEGAGGNGSSNVHV

Variants of: B1
Conditions: with pkd1_human PKD1, P98161
pkd1_human PKD1, P98161, sequence (P98161 whole entry, looked up): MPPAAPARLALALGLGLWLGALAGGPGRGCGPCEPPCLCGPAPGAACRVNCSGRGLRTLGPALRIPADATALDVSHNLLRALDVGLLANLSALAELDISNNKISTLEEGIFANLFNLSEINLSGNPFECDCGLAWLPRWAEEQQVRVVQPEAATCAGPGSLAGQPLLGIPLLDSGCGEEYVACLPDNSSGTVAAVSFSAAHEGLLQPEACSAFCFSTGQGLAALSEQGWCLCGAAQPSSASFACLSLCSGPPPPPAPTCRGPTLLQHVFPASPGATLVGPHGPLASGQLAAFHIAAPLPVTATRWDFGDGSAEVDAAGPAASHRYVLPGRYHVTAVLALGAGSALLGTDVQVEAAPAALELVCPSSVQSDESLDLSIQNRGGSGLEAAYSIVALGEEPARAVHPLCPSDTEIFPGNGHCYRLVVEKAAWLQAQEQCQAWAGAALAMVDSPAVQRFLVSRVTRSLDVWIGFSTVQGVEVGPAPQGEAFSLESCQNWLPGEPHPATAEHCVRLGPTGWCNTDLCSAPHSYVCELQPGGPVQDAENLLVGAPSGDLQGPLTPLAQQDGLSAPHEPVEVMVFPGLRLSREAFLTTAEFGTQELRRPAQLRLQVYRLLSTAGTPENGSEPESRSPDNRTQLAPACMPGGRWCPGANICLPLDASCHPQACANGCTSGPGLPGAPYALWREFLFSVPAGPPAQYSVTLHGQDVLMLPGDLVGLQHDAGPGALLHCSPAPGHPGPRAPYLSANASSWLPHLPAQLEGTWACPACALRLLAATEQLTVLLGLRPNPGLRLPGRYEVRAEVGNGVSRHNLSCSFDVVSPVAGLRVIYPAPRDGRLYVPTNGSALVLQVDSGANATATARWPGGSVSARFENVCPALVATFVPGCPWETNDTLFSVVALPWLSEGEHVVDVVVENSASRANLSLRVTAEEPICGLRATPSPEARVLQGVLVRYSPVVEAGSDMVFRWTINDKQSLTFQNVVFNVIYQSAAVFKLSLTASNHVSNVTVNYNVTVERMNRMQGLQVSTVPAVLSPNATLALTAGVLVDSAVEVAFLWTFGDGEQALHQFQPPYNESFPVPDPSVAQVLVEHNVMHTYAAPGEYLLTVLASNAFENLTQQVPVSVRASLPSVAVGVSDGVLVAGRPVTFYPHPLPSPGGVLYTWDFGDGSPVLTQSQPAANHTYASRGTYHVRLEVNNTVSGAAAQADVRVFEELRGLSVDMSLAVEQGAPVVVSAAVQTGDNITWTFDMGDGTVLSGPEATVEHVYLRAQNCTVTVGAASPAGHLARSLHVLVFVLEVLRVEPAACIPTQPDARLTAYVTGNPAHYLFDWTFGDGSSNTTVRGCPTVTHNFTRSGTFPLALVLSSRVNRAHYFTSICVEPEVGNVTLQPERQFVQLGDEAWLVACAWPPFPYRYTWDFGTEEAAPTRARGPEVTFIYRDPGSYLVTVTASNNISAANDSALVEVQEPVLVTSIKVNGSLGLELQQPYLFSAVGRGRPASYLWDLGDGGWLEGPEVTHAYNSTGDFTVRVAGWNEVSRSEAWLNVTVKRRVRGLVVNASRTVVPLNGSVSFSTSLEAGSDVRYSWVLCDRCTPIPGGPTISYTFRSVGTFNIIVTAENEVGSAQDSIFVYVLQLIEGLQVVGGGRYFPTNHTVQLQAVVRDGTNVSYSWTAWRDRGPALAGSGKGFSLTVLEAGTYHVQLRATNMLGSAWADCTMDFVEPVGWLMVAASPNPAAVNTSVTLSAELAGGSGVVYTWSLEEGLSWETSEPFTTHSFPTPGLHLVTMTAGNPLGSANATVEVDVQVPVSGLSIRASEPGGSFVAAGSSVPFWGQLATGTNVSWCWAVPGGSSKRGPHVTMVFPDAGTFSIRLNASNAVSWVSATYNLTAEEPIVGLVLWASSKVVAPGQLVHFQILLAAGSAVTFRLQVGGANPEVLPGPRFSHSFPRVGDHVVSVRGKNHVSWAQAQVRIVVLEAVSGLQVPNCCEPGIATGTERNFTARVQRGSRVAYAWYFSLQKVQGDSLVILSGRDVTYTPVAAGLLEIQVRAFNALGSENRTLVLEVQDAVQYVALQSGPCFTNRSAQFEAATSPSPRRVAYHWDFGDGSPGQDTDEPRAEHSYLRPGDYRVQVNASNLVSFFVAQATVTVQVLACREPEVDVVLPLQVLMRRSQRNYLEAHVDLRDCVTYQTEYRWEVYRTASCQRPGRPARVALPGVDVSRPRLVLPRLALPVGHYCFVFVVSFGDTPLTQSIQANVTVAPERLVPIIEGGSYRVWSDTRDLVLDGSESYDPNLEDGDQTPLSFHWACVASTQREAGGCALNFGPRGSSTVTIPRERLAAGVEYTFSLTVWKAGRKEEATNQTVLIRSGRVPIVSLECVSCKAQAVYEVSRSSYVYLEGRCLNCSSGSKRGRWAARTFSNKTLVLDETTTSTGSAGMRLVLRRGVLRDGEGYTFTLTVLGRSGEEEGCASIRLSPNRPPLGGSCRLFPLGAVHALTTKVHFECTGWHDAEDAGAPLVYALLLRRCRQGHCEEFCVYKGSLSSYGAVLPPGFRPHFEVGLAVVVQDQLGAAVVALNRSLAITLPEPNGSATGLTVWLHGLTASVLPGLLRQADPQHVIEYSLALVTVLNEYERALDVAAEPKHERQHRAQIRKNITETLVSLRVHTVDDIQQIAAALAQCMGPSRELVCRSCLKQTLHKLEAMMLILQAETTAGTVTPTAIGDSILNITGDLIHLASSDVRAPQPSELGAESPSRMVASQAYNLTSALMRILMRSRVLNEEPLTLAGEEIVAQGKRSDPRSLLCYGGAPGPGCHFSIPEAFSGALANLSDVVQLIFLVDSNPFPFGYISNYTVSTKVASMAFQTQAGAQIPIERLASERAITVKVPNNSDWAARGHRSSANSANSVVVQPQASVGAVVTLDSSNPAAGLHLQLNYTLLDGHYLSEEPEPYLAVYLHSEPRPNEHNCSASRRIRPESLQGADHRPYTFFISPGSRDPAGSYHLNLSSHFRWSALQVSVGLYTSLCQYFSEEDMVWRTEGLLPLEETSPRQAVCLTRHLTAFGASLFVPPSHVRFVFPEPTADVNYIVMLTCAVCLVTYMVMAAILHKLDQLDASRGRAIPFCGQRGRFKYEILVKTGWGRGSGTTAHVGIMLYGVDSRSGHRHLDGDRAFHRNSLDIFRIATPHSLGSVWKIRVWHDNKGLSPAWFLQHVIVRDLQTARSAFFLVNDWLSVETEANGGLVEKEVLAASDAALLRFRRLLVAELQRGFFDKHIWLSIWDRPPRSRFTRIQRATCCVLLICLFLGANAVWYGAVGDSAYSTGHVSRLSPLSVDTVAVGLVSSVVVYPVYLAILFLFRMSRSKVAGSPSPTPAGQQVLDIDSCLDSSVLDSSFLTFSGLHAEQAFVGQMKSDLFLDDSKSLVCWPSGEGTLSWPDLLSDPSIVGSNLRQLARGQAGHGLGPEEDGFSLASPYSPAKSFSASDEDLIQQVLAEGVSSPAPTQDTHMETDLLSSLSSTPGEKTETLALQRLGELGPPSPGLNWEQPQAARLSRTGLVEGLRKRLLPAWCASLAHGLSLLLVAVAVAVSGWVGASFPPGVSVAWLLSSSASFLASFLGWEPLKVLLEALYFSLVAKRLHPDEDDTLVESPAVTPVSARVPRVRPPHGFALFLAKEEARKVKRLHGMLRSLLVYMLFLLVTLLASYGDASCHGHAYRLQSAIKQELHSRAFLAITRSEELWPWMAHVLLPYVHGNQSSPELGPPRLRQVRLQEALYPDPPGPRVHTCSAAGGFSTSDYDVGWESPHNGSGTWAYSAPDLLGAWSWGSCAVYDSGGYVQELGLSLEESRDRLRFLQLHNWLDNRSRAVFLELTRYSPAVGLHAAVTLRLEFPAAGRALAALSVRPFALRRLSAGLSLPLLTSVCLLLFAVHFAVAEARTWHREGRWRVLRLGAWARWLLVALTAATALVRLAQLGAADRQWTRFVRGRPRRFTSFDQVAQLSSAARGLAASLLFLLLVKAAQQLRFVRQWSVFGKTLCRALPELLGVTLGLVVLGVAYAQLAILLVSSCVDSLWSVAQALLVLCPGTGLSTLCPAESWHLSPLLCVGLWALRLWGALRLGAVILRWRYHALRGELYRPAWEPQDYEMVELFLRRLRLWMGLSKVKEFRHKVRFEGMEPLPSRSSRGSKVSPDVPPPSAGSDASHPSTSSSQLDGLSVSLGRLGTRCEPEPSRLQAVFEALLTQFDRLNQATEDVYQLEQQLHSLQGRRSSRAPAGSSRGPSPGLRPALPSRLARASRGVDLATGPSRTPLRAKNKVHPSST

Row | effect of a mutation on the interaction | Variant
1 | disrupting interaction strength | L842A;V846A;M849A;I860A;V863A;L867A
